From patent US20030124508A1, “Method for testing the hormonal effect of substances” (priority 2001, published 2003)

Biological target: T1, androgen receptor (Homo sapiens, UniProt P10275)
T1 construct: expressed in transfected cells; host or cells: SH-SY5Y
T1 sequence (P10275 1-920): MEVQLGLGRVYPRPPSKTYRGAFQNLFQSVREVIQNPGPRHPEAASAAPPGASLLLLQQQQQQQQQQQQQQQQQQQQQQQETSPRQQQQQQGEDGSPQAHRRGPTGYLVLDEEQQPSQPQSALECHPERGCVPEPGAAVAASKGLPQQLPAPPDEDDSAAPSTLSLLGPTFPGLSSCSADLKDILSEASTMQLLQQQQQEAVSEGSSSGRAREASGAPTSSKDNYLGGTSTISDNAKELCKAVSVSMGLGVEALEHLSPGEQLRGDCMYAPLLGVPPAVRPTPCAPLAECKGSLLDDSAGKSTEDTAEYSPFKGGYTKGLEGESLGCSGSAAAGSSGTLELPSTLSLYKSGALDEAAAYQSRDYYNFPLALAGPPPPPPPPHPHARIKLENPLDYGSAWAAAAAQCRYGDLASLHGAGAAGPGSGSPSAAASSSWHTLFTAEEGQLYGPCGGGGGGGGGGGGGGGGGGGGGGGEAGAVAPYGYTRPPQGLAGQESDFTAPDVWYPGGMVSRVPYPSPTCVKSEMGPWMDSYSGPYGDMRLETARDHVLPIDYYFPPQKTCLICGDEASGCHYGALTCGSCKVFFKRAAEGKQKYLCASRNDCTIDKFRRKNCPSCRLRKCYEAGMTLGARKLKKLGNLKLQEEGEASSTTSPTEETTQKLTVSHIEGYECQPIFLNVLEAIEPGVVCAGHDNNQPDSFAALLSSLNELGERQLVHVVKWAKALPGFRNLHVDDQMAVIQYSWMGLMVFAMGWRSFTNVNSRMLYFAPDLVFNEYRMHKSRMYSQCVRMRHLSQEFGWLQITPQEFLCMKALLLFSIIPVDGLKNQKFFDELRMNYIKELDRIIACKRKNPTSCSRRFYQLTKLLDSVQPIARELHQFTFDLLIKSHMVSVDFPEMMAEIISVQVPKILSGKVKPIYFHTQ
Experiment: Co-activation of the androgen receptor signal (MMTV-luciferase reporter) in transfected SH-SY5Y cells
Type: cell-based
Settings: SH-SY5Y cells transfected with 1 μg co-activator in CMX, MMTV-luciferase and pSG5AR; DHT for 24 hours; especially at low androgen concentrations of 10^−12-10^−10 M; vs CMX control plasmid
Experimental: The ARAP11-cDNA which codes for the ARAP11 fragment of amino acids 813-1,390, obtained by PCR, was cloned in the standard manner into the vector CMX and transfected with pSG5-AR and MMTV-luciferase in SH-SY5Y cells, also in the standard manner.
After 24 hours, the cells were treated with […] (DHT) as the androgen in the indicated concentrations. The transfected cells were harvested after another 24 hours, and the activity of the reporter gene luciferase was measured. In addition, the total quantity of cell protein was determined for the sake of normalization. One experiment and four measurements were conducted per transfection batch and substance concentration. The error range is given as the SD. The values of the corresponding controls without DHT were subtracted from all signals. The activity is expressed in relative units.

B1: ARAP11-cDNA: cDNA in vector CMX coding for amino acids 813-1,390 of ARAP11, co-activator for the human androgen receptor (protein)
chain: VIHALEKFTVYTLDIPVLFGVSTTSPEETCAQVIREAKRTAPSIVYVPHIHVWWEIVGPTLKATFTTLLQNIPSFAPVLLLATSDKPHSALPEEVQELFIRDYGEIFNVQLPDKEERTKFFEDLILKQAAKPPISKKKAVLQALEVLPVAPPPEPRSLTAEEVKRLEEQEEDTFRELRIFLRNVTHRLAIDKRFRVFTKPVDPDEVPDYVTVIKQPMDLSSVISKIDLHKYLTVKDYLRDIDLICSNALEYNPDRDPGDRLIRHRACALRDTAYAIIKEELDEDFEQLCEEIQESRKKRGCSSSKYAPSYYHVMPKQNSTLVGDKRSDPEQNEKLKTPSTPVACSTPAQLKRKIRKKSNWYLGTIKKRRKISQAKDDSQNAIDHKIESDTEETQDTSVDHNETGNTGESSVEENEKQQNASESKLELRNNSNTCNIENELEDSRKTTACTELRDKIACNGDASSSQIIHISDENEGKEMCVLRMTRARRSQVEQQQLITVEKALAILSQPTPSLVVDHERLKNLLKTVVKKSQNYNIFQLENLYAVISQCIYRHRKDHDKTSLIQKMEQEVENFSCSR
modifications: fetalbrain; ARAP11 fragment from amino acid residues 813- 1390
For B1, the “co-activation of the AR signal activity (luciferase reporter activity)” value was “strong co-activation of the AR signal activity”.
